Reference: paper PMC5778112

Tests used:
[1] = molecular target: VLA-4 (α4β1, CD49d/CD29) (human (endogenous in Jurkat and primary human CD4+ T cells)) (UniProt P13612)
[2] = molecular target: VLA-4 (α4β1, CD49d/CD29) (human (endogenous in Jurkat and primary human CD4+ T cells)) (UniProt P13612); remark: listed apart in the source

Sequence of UniProt P13612 (P13612 34-1032, chain 1 of 2): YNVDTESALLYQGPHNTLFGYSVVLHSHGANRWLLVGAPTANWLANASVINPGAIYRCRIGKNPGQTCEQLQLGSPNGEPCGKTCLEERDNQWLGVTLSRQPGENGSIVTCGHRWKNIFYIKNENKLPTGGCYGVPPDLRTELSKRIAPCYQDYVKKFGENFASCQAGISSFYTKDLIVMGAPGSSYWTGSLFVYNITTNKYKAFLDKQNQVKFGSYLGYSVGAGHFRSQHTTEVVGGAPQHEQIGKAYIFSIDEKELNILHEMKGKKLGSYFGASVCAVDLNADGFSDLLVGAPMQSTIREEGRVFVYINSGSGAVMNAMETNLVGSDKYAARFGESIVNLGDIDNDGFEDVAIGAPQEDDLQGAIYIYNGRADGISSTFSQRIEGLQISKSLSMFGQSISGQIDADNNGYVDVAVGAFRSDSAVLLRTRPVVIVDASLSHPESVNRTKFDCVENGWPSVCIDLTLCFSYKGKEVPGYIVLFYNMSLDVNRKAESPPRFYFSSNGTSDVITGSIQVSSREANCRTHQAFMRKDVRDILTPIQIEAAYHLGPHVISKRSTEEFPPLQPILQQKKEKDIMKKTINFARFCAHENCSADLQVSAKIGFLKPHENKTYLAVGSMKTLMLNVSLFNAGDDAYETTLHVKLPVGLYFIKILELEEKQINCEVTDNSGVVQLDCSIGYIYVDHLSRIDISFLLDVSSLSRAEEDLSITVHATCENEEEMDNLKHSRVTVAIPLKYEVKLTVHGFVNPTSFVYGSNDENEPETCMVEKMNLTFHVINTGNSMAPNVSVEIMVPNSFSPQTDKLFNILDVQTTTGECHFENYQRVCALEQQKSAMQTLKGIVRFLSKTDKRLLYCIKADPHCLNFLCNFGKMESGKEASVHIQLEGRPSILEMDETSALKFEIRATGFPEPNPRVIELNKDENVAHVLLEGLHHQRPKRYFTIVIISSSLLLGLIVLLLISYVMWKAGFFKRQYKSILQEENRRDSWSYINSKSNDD
Sequence of UniProt P13612 (P05556 21-798, chain 2 of 2, further chain): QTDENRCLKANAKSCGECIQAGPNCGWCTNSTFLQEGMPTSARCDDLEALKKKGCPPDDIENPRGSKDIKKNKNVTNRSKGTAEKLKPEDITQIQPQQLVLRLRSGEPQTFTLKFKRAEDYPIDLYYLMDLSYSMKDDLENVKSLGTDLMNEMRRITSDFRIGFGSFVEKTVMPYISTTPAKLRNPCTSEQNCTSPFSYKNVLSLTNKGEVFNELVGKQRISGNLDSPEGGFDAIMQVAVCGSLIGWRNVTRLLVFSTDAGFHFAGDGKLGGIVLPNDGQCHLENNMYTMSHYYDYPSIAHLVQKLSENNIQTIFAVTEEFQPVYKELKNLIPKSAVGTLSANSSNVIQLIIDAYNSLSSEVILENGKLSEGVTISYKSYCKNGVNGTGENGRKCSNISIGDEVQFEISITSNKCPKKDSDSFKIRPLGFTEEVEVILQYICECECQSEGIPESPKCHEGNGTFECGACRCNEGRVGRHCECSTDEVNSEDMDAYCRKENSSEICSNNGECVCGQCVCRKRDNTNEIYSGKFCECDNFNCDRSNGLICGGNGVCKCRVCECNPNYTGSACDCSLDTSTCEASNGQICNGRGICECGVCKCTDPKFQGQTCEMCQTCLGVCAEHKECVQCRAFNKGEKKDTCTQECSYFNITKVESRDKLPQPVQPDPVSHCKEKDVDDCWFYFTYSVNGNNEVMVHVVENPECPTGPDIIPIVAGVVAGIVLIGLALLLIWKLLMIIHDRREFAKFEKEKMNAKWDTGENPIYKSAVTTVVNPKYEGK

actin flow rate in the lamellipodial region of Jurkat T cells (GFP-actin) spreading on coverslips coated with anti-CD3 + VCAM-1 (85–95 nm/s on anti-CD3 alone) [1] [nm/s] | actin flow rate in the lamellipodial region of Jurkat T cells on supported lipid bilayers with mobile anti-CD3 + VCAM-1 [2] [nm/s] | Binder
15 |  | human VCAM-1-Fc chimera (Fc fusion, labeled with AF-647 for patterning) FKIETTPESRYLAQIGDSVSLTCSTTGCESPFFSWRTQIDSPLNGKVTNEGTTSTLTMNPVSFGNEHSYLCTATCESRKLEKGIQVEIYSFPKDPEIHLSGPLEAGKPITVKCSVADVYPFDRLEIDLLKGDHLMKSQEFLEDADRKSLETKSLEVTFTPVIEDIGKVLVCRAKLHIDEMDSVPTVRQAVKELQVYISPKNTVISVNPSTKLQEGGSVTMTCSSEGLPAPEIFWSKKLDNGNLQHLSGNATLTLIAMRMEDSGIYVCEGVNLIGKNRKEVELIVQEKPFTVEISPGPRIAAQIGDSVMLTCSVMGCESPSFSWRTQIDSPLSGKVRSEGTNSTLTLSPVSFENEHSYLCTVTCGHKKLEKGIQVELYSFPRDPEIEMSGGLVNGSSVTVSCKVPSVYPLDRLEIELLKGETILENIEFLEDTDMKSLENKSLEMTFIPTIEDTGKALVCQAKLHIDDMEFEPKQRQSTQTLYVNVAPRDTTVLVSPSSILEEGSSVNMTCLSQGFPAPKILWSRQLPNGELQPLSENATLTLISTKMEDSGVYLCEGINQAGRSRKEVELIIQVTPKDIKLTAFPSESVKEGDTVIISCTCGNVPETWIILKKKAETGDTVLKSIDGAYTIRKAQLKDAGVYECESKNKVGSQLRSLTLDVQGRENNKDYFSPE
 | 60 | His-tagged human VCAM-1 Fc (Fc fusion) FKIETTPESRYLAQIGDSVSLTCSTTGCESPFFSWRTQIDSPLNGKVTNEGTTSTLTMNPVSFGNEHSYLCTATCESRKLEKGIQVEIYSFPKDPEIHLSGPLEAGKPITVKCSVADVYPFDRLEIDLLKGDHLMKSQEFLEDADRKSLETKSLEVTFTPVIEDIGKVLVCRAKLHIDEMDSVPTVRQAVKELQVYISPKNTVISVNPSTKLQEGGSVTMTCSSEGLPAPEIFWSKKLDNGNLQHLSGNATLTLIAMRMEDSGIYVCEGVNLIGKNRKEVELIVQEKPFTVEISPGPRIAAQIGDSVMLTCSVMGCESPSFSWRTQIDSPLSGKVRSEGTNSTLTLSPVSFENEHSYLCTVTCGHKKLEKGIQVELYSFPRDPEIEMSGGLVNGSSVTVSCKVPSVYPLDRLEIELLKGETILENIEFLEDTDMKSLENKSLEMTFIPTIEDTGKALVCQAKLHIDDMEFEPKQRQSTQTLYVNVAPRDTTVLVSPSSILEEGSSVNMTCLSQGFPAPKILWSRQLPNGELQPLSENATLTLISTKMEDSGVYLCEGINQAGRSRKEVELIIQVTPKDIKLTAFPSESVKEGDTVIISCTCGNVPETWIILKKKAETGDTVLKSIDGAYTIRKAQLKDAGVYECESKNKVGSQLRSLTLDVQGRENNKDYFSPE
